For this assay, the target named is T1, SARS-CoV-2 Nucleocapsid protein, His Tag (SARS-CoV-2, UniProt P0DTC9 1-419).
T1 construct: Bought
Kind of assay: ELISA, His-tagged viral protein captured on nickel plates (6.25-50 pmol/mL).

B1: Purified C-reactive protein (CRP) (other)
chain: QTDMSRKAFVFPKESDTSYVSLKAPLTKPLKAFTVCLHFYTELSSTRGYSIFSYATKRQDNEILIFWSKDIGYSFTVGGSEILFEVPEVTVAPVHICTSWESASGIVEFWVDGKPRVRKSLKKGYTVGAEASIILGQEQDSFGGNFEGSQSLVGDIGNVNMWDFVLSPDEINTIYLGGPFSPNVLNWRALKYEVQGEVFTKPQLWP
With B1, the binding result was “no binding (tested: CRP 3 µg/mL (25 nM))”.

(Values after US20240123029A1 (HUMANITAS MIRASOLE S P A, published 2024).)
